Measured values from patent US20250127943A1 (published 2025).

Tests used:
[1] = molecular target: Epidermal growth factor receptor I (EGFR) (human) (UniProt P00533); assay: flow cytometry on MDA-MB-468 cells
[2] = molecular target: Epidermal growth factor receptor I (EGFR) (human) (UniProt P00533); assay: flow cytometry saturation binding on EGFR positive cells
[3] = molecular target: Epidermal growth factor receptor I (EGFR) (human) (UniProt P00533); assay: competitive radioligand binding on MDA-MB-468 cells; pre-blocking with 100-fold excess unlabeled 8709-scFv-Fc, tracer ^225Ac-8709-scFv-Fc at 50 nM
[4] = molecular target: T1, Epidermal growth factor receptor I (EGFR) (human, UniProt P00533 25-1210); assay: flow cytometry on MDA-MB-468 cells
T1 construct: whole, on cells; MDA-MB-231 cells also carry EphA2; also called ErbB-1; HER1
Protocol: (§1) Binding profile of immunoconjugates to MDA-MB468 (high EGFR expression) and MDA-MB-435 (EGFR negative) was studied using flow cytometry. […] A saturation binding curve was performed to determine the binding constants KD at which immunoconjugates bind to the cell.
(§2) In vitro binding to target receptor (e.g. EGFR) positive cells was performed for all immunoconjugates and compared with corresponding unconjugated antibody, and control IgG. […] Target antibodies, control IgG and their respective ADCs were titrated at a minimum of a 10-fold excess onto 1×10⁵ cells. The cell-compound reactions were incubated for 30 minutes at room temperature followed by 15 minutes on ice. Cells were washed and resuspended in a 1:50 dilution of PE or FITC labeled Goat F(ab′)2 fragment anti-human IgG (H+L) antibody (Beckman Coulter, IM0839) and incubated for 30 minutes on ice in the dark. Cells were washed and suspended in 2% FBS-PBS. Data was acquired using a Beckman Coulter Gallios flow cytometer and the results were analysed using FlowJoV10. The binding constant KD for each conjugate were generated using a non-linear regression curve fit with GraphPad prism 6.

[5] = molecular target: T1, Epidermal growth factor receptor I …; assay: flow cytometry saturation binding on EGFR positive cells
Protocol: as §1, §2

[6] = molecular target: T1, Epidermal growth factor receptor I …; assay: flow cytometry saturation binding on MDA-MB-468 cells
Protocol: as §1, §2

[7] = molecular target: T1, Epidermal growth factor receptor I …; assay: saturation radioligand binding assay on MDA-MB-468 cells

B1: 8709-scFv-Fc (Fc fusion, part only; not given: Linker, domain order, hinge and Fc, not shown: another chain or arm of the molecule; a dimerising Fc or GST; small tags and cut ends)
VH: EVQLVESGGGLVQPGGSLRLSCAASGFNLYSSSMHWVRQAPGKGLEWVASIYPYSGYTYYADSVKGRFTISADTSKNTAYLQMNSLRAEDTAVYYCARYPFGVSAYYAMDYWGQGTLVTVSS
VL: DIQMTQSPSSLSASVGDRVTITCRASQSVSSAVAWYQQKPGKAPKLLIYSASSLYSGVPSRFSGSRSGTDFTLTISSLQPEDFATYYCQQSYWLITFGQGTKVEIK
[1]
  % binding: > 90%
[2]
  Kd: 1.1 nM
[3]
  fold reduction in the binding of ^225Ac-8709-scFv-Fc to EGFR: 23.2 fold

B2: 8709-scFv-Fc-PEG6-DM1 (Fc fusion)
VH: B1 VH
VL: DIQMTQSPSSLSASVGDRVTITCRASQSVSSAVAWYQQKPGKAPKLLIYSASSLYSGVPSRFSGSRSGTDFTLTISSLQPEDFATYYCQQSYWLITFGQGTKVEIKR
modifications: PEG6-DM1 conjugated via NHS (drug to antibody ratio 3.5), sites not stated
[4]
  % binding: > 90%
[5]
  Kd: 4.2 nM

B3: Macropa-8709-scFv-Fc (Fc fusion)
VH: B1 VH
VL: B2 VL
modifications: macropa chelator conjugated via macropa-NCS, sites not stated
[6]
  fold higher KD value as compared to 8709-scFv-Fc: 10.4 fold
[5]
  Kd: 11.3 nM

B4: ^225Ac-8709-scFv-Fc (Fc fusion)
VH: B1 VH
VL: B2 VL
modifications: macropa chelator with ^225Ac, sites not stated
[7]
  Kd: 14.5 nM
